Measured values from doi:10.1101/2021.07.20.453058 (bioRxiv, 2021).
Values belong to the molecule of their own block, whether it stands above or below them.

Legend:
Experiment in all cases: native gel or EMSA
[1] = molecular target: KaiA3-His6 (Synechocystis sp. PCC 6803)
[2] = molecular target: KaiB3 (recombinant, GST-tag removed) (Synechocystis sp. PCC 6803)
[3] = molecular target: Strep-KaiC3 (Synechocystis sp. PCC 6803)
[4] = molecular target: the molecule itself

Molecule: KaiB3 (recombinant, GST-tag removed) (natural protein)
stoichiometry N [2]: 4

B1: Synechococcus KaiA (recombinant, GST-tag removed) (natural protein, Synechococcus elongatus PCC 7942, UniProt Q79PF6 1-284, looked up)
chain: MLSQIAICIWVESTAILQDCQRALSADRYQLQVCESGEMLLEYAQTHRDQIDCLILVAANPSFRAVVQQLCFEGVVVPAIVVGDRDSEDPDEPAKEQLYHSAELHLGIHQLEQLPYQVDAALAEFLRLAPVETMADHIMLMGANHDPELSSQQRDLAQRLQERLGYLGVYYKRDPDRFLRNLPAYESQKLHQAMQTSYREIVLSYFSPNSNLNQSIDNFVNMAFFADVPVTKVVEIHMELMDEFAKKLRVEGRSEDILLDYRLTLIDVIAHLCEMYRRSIPRET
stoichiometry N [4]: 2

Second part, the molecule after the results:

stoichiometry N [1]: > 2
Molecule: KaiA3-His6 (natural protein)

stoichiometry N [3]: 6
Molecule: Strep-KaiC3 (natural protein)
